Target: T1, CD3ε homodimer protein (human, UniProt P07766 23-126, limits assumed, sulfo-tag or biotin label in the ECL assays; amine-coupled to the chip in SPR)
T1 construct: also called human CD3ε homodimer protein; CD3 (CD3ε)
Test: SPR Biacore T200; CD3ε homodimer on CM4 chip;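 further: Single-residue variant antibodies injected as analyte over CD3ε homodimer immobilized by amine coupling, run at 25 °C in HBS-EP+ buffer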

T1 sequence (P07766 23-126 limits assumed): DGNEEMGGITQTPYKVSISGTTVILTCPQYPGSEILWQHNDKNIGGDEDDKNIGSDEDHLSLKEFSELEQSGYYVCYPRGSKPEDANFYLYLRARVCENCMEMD

ratio of amounts bound Z=Y/X (altered form / CE115HA000) | Binder
0.91 | CE115HA000 E61D one-arm antibody (antibody, human IgG1, kappa, L234A L235A, N297A, name in Kabat numbering) heavy: QVQLVESGGGVVQPGRSLRLSCAASGFTFSNAWMHWVRQAPGKGLEWVAQIKAKSNNYATYYADSVKGRFTISRDDSKNSLYLQMNSLKTEDTAVYYCRYVHYGAYYGVDAWGQGTTVTVSSASTKGPSVFPLAPSSKSTSGGTAALGCLVKDYFPEPVTVSWNSGALTSGVHTFPAVLQSSGLYSLSSVVTVPSSSLGTQTYICNVNHKPSNTKVDKKVEPKSCDKTHTCPPCPAPEAAGGPSVFLFPPKPKDTLMISRTPEVTCVVVDVSHEDPEVKFNWYVDGVEVHNAKTKPREEQYASTYRVVSVLTVLHQDWLNGKEYKCKVSNKALPAPIEKTISKAKGQPREPQVYTLPPSRCELTKNQVSLSCAVKGFYPSDIAVEWESNGQPENNYKTTPPVLDSDGSFFLVSKLTVDKSRWQQGNVFSCSVMHEALHNHYTQKSLSLSPDYKDDDDK EPKSSDKTHTCPPCPAPELLGGPSVFLFPPKPKDTLMISRTPEVTCVVVDVSHEDPEVKFNWYVDGVEVHNAKTKPREEQYNSTYRVVSVLTVLHQDWLNGKEYKCKVSNKALPAPIEKTISKAKGQPREPQVCTLPPSRDELTKNQVSLWCLVKGFYPSDIAVEWESNGQPENNYKTTPPVLDSDGSFFLYSKLTVDKSRWQQGNVFSCSVMHEALHNRYTQKSLSLSP light: DIVMTQSPLSLPVTPGEPASISCRSSQSLVHSNRNTYLHWYQQKPGQAPRLLIYKVSNRFSGVPDRFSGSGSGTDFTLKISRVEAEDVGVYYCGQGTQVPYTFGQGTKLEIKRTVAAPSVFIFPPSDEQLKSGTASVVCLLNNFYPREAKVQWKVDNALQSGNSQESVTEQDSKDSTYSLSSTLTLSKADYEKHKVYACEVTHQGLSSPVTKSFNRGEC
1.07 | CE115HA000 E61P one-arm antibody (antibody, human IgG1, kappa, L234A L235A, N297A, name in Kabat numbering) heavy: QVQLVESGGGVVQPGRSLRLSCAASGFTFSNAWMHWVRQAPGKGLEWVAQIKAKSNNYATYYAPSVKGRFTISRDDSKNSLYLQMNSLKTEDTAVYYCRYVHYGAYYGVDAWGQGTTVTVSSASTKGPSVFPLAPSSKSTSGGTAALGCLVKDYFPEPVTVSWNSGALTSGVHTFPAVLQSSGLYSLSSVVTVPSSSLGTQTYICNVNHKPSNTKVDKKVEPKSCDKTHTCPPCPAPEAAGGPSVFLFPPKPKDTLMISRTPEVTCVVVDVSHEDPEVKFNWYVDGVEVHNAKTKPREEQYASTYRVVSVLTVLHQDWLNGKEYKCKVSNKALPAPIEKTISKAKGQPREPQVYTLPPSRCELTKNQVSLSCAVKGFYPSDIAVEWESNGQPENNYKTTPPVLDSDGSFFLVSKLTVDKSRWQQGNVFSCSVMHEALHNHYTQKSLSLSPDYKDDDDK EPKSSDKTHTCPPCPAPELLGGPSVFLFPPKPKDTLMISRTPEVTCVVVDVSHEDPEVKFNWYVDGVEVHNAKTKPREEQYNSTYRVVSVLTVLHQDWLNGKEYKCKVSNKALPAPIEKTISKAKGQPREPQVCTLPPSRDELTKNQVSLWCLVKGFYPSDIAVEWESNGQPENNYKTTPPVLDSDGSFFLYSKLTVDKSRWQQGNVFSCSVMHEALHNRYTQKSLSLSP light: DIVMTQSPLSLPVTPGEPASISCRSSQSLVHSNRNTYLHWYQQKPGQAPRLLIYKVSNRFSGVPDRFSGSGSGTDFTLKISRVEAEDVGVYYCGQGTQVPYTFGQGTKLEIKRTVAAPSVFIFPPSDEQLKSGTASVVCLLNNFYPREAKVQWKVDNALQSGNSQESVTEQDSKDSTYSLSSTLTLSKADYEKHKVYACEVTHQGLSSPVTKSFNRGEC

Second part, the binder before the results:

Binder | ratio of amounts bound Z=Y/X (altered form / CE115HA000)
CE115HA000 D101T one-arm antibody (antibody, human IgG1, kappa, L234A L235A, N297A, name in Kabat numbering) heavy: QVQLVESGGGVVQPGRSLRLSCAASGFTFSNAWMHWVRQAPGKGLEWVAQIKAKSNNYATYYAESVKGRFTISRDDSKNSLYLQMNSLKTEDTAVYYCRYVHYGAYYGVTAWGQGTTVTVSSASTKGPSVFPLAPSSKSTSGGTAALGCLVKDYFPEPVTVSWNSGALTSGVHTFPAVLQSSGLYSLSSVVTVPSSSLGTQTYICNVNHKPSNTKVDKKVEPKSCDKTHTCPPCPAPEAAGGPSVFLFPPKPKDTLMISRTPEVTCVVVDVSHEDPEVKFNWYVDGVEVHNAKTKPREEQYASTYRVVSVLTVLHQDWLNGKEYKCKVSNKALPAPIEKTISKAKGQPREPQVYTLPPSRCELTKNQVSLSCAVKGFYPSDIAVEWESNGQPENNYKTTPPVLDSDGSFFLVSKLTVDKSRWQQGNVFSCSVMHEALHNHYTQKSLSLSPDYKDDDDK EPKSSDKTHTCPPCPAPELLGGPSVFLFPPKPKDTLMISRTPEVTCVVVDVSHEDPEVKFNWYVDGVEVHNAKTKPREEQYNSTYRVVSVLTVLHQDWLNGKEYKCKVSNKALPAPIEKTISKAKGQPREPQVCTLPPSRDELTKNQVSLWCLVKGFYPSDIAVEWESNGQPENNYKTTPPVLDSDGSFFLYSKLTVDKSRWQQGNVFSCSVMHEALHNRYTQKSLSLSP light: DIVMTQSPLSLPVTPGEPASISCRSSQSLVHSNRNTYLHWYQQKPGQAPRLLIYKVSNRFSGVPDRFSGSGSGTDFTLKISRVEAEDVGVYYCGQGTQVPYTFGQGTKLEIKRTVAAPSVFIFPPSDEQLKSGTASVVCLLNNFYPREAKVQWKVDNALQSGNSQESVTEQDSKDSTYSLSSTLTLSKADYEKHKVYACEVTHQGLSSPVTKSFNRGEC | 0.79
CE115HA000 D101V one-arm antibody (antibody, human IgG1, kappa, L234A L235A, N297A, name in Kabat numbering) heavy: QVQLVESGGGVVQPGRSLRLSCAASGFTFSNAWMHWVRQAPGKGLEWVAQIKAKSNNYATYYAESVKGRFTISRDDSKNSLYLQMNSLKTEDTAVYYCRYVHYGAYYGVVAWGQGTTVTVSSASTKGPSVFPLAPSSKSTSGGTAALGCLVKDYFPEPVTVSWNSGALTSGVHTFPAVLQSSGLYSLSSVVTVPSSSLGTQTYICNVNHKPSNTKVDKKVEPKSCDKTHTCPPCPAPEAAGGPSVFLFPPKPKDTLMISRTPEVTCVVVDVSHEDPEVKFNWYVDGVEVHNAKTKPREEQYASTYRVVSVLTVLHQDWLNGKEYKCKVSNKALPAPIEKTISKAKGQPREPQVYTLPPSRCELTKNQVSLSCAVKGFYPSDIAVEWESNGQPENNYKTTPPVLDSDGSFFLVSKLTVDKSRWQQGNVFSCSVMHEALHNHYTQKSLSLSPDYKDDDDK EPKSSDKTHTCPPCPAPELLGGPSVFLFPPKPKDTLMISRTPEVTCVVVDVSHEDPEVKFNWYVDGVEVHNAKTKPREEQYNSTYRVVSVLTVLHQDWLNGKEYKCKVSNKALPAPIEKTISKAKGQPREPQVCTLPPSRDELTKNQVSLWCLVKGFYPSDIAVEWESNGQPENNYKTTPPVLDSDGSFFLYSKLTVDKSRWQQGNVFSCSVMHEALHNRYTQKSLSLSP light: DIVMTQSPLSLPVTPGEPASISCRSSQSLVHSNRNTYLHWYQQKPGQAPRLLIYKVSNRFSGVPDRFSGSGSGTDFTLKISRVEAEDVGVYYCGQGTQVPYTFGQGTKLEIKRTVAAPSVFIFPPSDEQLKSGTASVVCLLNNFYPREAKVQWKVDNALQSGNSQESVTEQDSKDSTYSLSSTLTLSKADYEKHKVYACEVTHQGLSSPVTKSFNRGEC | 1.33
CE115HA000 E61A one-arm antibody (antibody, human IgG1, kappa, L234A L235A, N297A, name in Kabat numbering) heavy: QVQLVESGGGVVQPGRSLRLSCAASGFTFSNAWMHWVRQAPGKGLEWVAQIKAKSNNYATYYAASVKGRFTISRDDSKNSLYLQMNSLKTEDTAVYYCRYVHYGAYYGVDAWGQGTTVTVSSASTKGPSVFPLAPSSKSTSGGTAALGCLVKDYFPEPVTVSWNSGALTSGVHTFPAVLQSSGLYSLSSVVTVPSSSLGTQTYICNVNHKPSNTKVDKKVEPKSCDKTHTCPPCPAPEAAGGPSVFLFPPKPKDTLMISRTPEVTCVVVDVSHEDPEVKFNWYVDGVEVHNAKTKPREEQYASTYRVVSVLTVLHQDWLNGKEYKCKVSNKALPAPIEKTISKAKGQPREPQVYTLPPSRCELTKNQVSLSCAVKGFYPSDIAVEWESNGQPENNYKTTPPVLDSDGSFFLVSKLTVDKSRWQQGNVFSCSVMHEALHNHYTQKSLSLSPDYKDDDDK EPKSSDKTHTCPPCPAPELLGGPSVFLFPPKPKDTLMISRTPEVTCVVVDVSHEDPEVKFNWYVDGVEVHNAKTKPREEQYNSTYRVVSVLTVLHQDWLNGKEYKCKVSNKALPAPIEKTISKAKGQPREPQVCTLPPSRDELTKNQVSLWCLVKGFYPSDIAVEWESNGQPENNYKTTPPVLDSDGSFFLYSKLTVDKSRWQQGNVFSCSVMHEALHNRYTQKSLSLSP light: DIVMTQSPLSLPVTPGEPASISCRSSQSLVHSNRNTYLHWYQQKPGQAPRLLIYKVSNRFSGVPDRFSGSGSGTDFTLKISRVEAEDVGVYYCGQGTQVPYTFGQGTKLEIKRTVAAPSVFIFPPSDEQLKSGTASVVCLLNNFYPREAKVQWKVDNALQSGNSQESVTEQDSKDSTYSLSSTLTLSKADYEKHKVYACEVTHQGLSSPVTKSFNRGEC | 1.09
CE115HA000 D101Y one-arm antibody (antibody, human IgG1, kappa, L234A L235A, N297A, name in Kabat numbering) heavy: QVQLVESGGGVVQPGRSLRLSCAASGFTFSNAWMHWVRQAPGKGLEWVAQIKAKSNNYATYYAESVKGRFTISRDDSKNSLYLQMNSLKTEDTAVYYCRYVHYGAYYGVYAWGQGTTVTVSSASTKGPSVFPLAPSSKSTSGGTAALGCLVKDYFPEPVTVSWNSGALTSGVHTFPAVLQSSGLYSLSSVVTVPSSSLGTQTYICNVNHKPSNTKVDKKVEPKSCDKTHTCPPCPAPEAAGGPSVFLFPPKPKDTLMISRTPEVTCVVVDVSHEDPEVKFNWYVDGVEVHNAKTKPREEQYASTYRVVSVLTVLHQDWLNGKEYKCKVSNKALPAPIEKTISKAKGQPREPQVYTLPPSRCELTKNQVSLSCAVKGFYPSDIAVEWESNGQPENNYKTTPPVLDSDGSFFLVSKLTVDKSRWQQGNVFSCSVMHEALHNHYTQKSLSLSPDYKDDDDK EPKSSDKTHTCPPCPAPELLGGPSVFLFPPKPKDTLMISRTPEVTCVVVDVSHEDPEVKFNWYVDGVEVHNAKTKPREEQYNSTYRVVSVLTVLHQDWLNGKEYKCKVSNKALPAPIEKTISKAKGQPREPQVCTLPPSRDELTKNQVSLWCLVKGFYPSDIAVEWESNGQPENNYKTTPPVLDSDGSFFLYSKLTVDKSRWQQGNVFSCSVMHEALHNRYTQKSLSLSP light: DIVMTQSPLSLPVTPGEPASISCRSSQSLVHSNRNTYLHWYQQKPGQAPRLLIYKVSNRFSGVPDRFSGSGSGTDFTLKISRVEAEDVGVYYCGQGTQVPYTFGQGTKLEIKRTVAAPSVFIFPPSDEQLKSGTASVVCLLNNFYPREAKVQWKVDNALQSGNSQESVTEQDSKDSTYSLSSTLTLSKADYEKHKVYACEVTHQGLSSPVTKSFNRGEC | 0.49
